Biological target: Hsp32
Experiment: native MS

Work on Hsp32 (natural protein) yielded a stoichiometry N of 2.

Reference: article PMC7212079
